Experiment [1] concerns the target Recombinant mouse nidogen-2 protein (mouse) (UniProt O88322).
Experiment [2] shares this target. The experiment in a line: ELISA. (In general: ELISA stands for enzyme-linked immunosorbent assay.)

UniProt O88322, sequence (O88322 31-1403): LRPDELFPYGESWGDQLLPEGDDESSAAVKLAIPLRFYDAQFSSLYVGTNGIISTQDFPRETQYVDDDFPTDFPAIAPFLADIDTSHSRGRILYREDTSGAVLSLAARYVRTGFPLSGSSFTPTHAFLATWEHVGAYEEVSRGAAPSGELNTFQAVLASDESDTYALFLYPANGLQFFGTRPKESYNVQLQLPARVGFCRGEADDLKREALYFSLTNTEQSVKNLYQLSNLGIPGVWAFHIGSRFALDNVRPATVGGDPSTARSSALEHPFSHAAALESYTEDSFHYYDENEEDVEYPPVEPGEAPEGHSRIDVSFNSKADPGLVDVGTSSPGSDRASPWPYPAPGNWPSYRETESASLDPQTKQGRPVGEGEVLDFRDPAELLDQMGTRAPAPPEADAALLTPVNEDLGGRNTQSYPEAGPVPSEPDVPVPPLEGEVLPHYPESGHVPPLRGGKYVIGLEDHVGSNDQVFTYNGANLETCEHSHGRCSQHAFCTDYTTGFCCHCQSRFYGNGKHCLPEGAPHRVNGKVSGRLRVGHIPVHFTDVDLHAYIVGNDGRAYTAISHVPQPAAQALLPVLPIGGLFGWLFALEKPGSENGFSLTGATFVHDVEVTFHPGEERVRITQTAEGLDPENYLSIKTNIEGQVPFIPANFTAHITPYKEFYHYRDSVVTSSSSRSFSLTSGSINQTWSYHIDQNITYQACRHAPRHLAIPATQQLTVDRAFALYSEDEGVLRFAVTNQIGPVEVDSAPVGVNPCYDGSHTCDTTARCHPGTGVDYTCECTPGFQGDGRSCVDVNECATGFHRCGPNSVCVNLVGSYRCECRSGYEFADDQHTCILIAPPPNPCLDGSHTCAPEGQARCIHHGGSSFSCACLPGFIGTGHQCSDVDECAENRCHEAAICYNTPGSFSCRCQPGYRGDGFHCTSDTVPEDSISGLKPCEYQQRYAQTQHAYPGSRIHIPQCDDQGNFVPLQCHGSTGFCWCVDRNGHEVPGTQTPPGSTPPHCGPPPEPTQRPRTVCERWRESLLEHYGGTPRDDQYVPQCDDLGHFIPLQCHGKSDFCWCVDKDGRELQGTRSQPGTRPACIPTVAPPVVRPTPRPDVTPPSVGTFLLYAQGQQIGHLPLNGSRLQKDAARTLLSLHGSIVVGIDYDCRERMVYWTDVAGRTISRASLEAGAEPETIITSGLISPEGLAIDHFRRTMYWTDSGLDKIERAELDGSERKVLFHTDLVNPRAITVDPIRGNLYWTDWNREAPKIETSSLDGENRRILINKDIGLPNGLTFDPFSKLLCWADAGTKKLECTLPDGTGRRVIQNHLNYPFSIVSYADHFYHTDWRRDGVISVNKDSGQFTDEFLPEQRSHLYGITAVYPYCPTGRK

What is called Kd is the concentration at which binding is half-saturated. Consider “LAR FNIII7-FLAG (6×His-LAR FNIII7-FLAG) (domain or fragment)”, for which, in experiment [1], the uptake of HCT-555 in mouse motor neurons pre-incubated with 20 μM of the domain, against buffer; pair to be blocked: nidogen and endogenous LAR was determined as 30%; the uptake of nidogen-2 in axons of mouse motor neurons pre-incubated with 20 μM of the domain, against buffer; pair to be blocked: nidogen and endogenous LAR is 25%. The Kd in experiment [2] came to 2500 nM.

For the substance “LAR FNIII4-FLAG (6×His-LAR FNIII4-FLAG) (domain or fragment)”, in experiment [1], the uptake of HCT-555 in mouse motor neurons pre-incubated with 20 μM of the domain, against buffer; pair to be blocked: nidogen and endogenous LAR came out at 30%; the uptake of nidogen-2 in axons of mouse motor neurons pre-incubated with 20 μM of the domain, against buffer; pair to be blocked: nidogen and endogenous LAR was 25%. Also, the equilibrium dissociation constant (Kd) in experiment [2] turned out to be 1900 nM.

On to “LAR FNIII2-FLAG (6×His-LAR FNIII2-FLAG) (domain or fragment)”, for which, in experiment [1], the uptake of HCT-555 in mouse motor neurons pre-incubated with 20 μM of the domain, against buffer; pair to be blocked: nidogen and endogenous LAR came to 30%; the uptake of nidogen-2 in axons of mouse motor neurons pre-incubated with 20 μM of the domain, against buffer; pair to be blocked: nidogen and endogenous LAR was 25%. In addition, the Kd in experiment [2] stood at 2000 nM.

For LAR FNIII1-4-FLAG (domain or fragment), the Kd in experiment [2] was 5600 nM.

On to “LAR FNIII5-FLAG (6×His-LAR FNIII5-FLAG) (domain or fragment)”, for which the Kd in experiment [2] stood at 1400 nM.

With PTPRδ Ig1-3-His (domain or fragment), in experiment [2], the Kd turned out to be 2000 nM.

Regarding “PTPRδ FNIII5-7-FLAG (domain or fragment)”, the Kd in experiment [2] came out at 10000 nM.

As to LAR FNIII5-7-FLAG (domain or fragment), the dissociation constant (Kd) in experiment [2] stood at 6800 nM.

Source of the values: PMC11329502.
